Reference: patent US20140099313A1 (published 2014)

Legend:
[1] = target: T1, human IL-13 variant (R130Q of SEQ ID NO 1) (human, UniProt P35225 35-146); assay: SPR (Biacore), captured mAb
T1 construct: Recombinant purified protein (Peprotech for immunisation); also called h IL-13v; hIL-13v
Experimental: The BIACORE assay (Biacore, Inc, Piscataway, N.J.) determines the affinity of antibodies with kinetic measurements of on-, off-rate constants. […] All chemicals were obtained from Biacore® AB (Uppsala, Sweden) or otherwise from a different source as described in the text. Approximately 5000 RU of goat anti-mouse IgG, (Fcγ), fragment specific polyclonal antibody (Pierce Biotechnology Inc, Rockford, Ill.) diluted in 10 mM sodium acetate (pH 4.5) was directly immobilized across a CM5 research grade biosensor chip using a standard amine coupling kit according to manufacturer's instructions and procedures at 25 μg/ml. […] Unmodified carboxymethyl dextran without goat anti-mouse IgG in flow cell 1 and 3 was used as the reference surface. For kinetic analysis, rate equations derived from the 1:1 Langmuir binding model were fitted simultaneously to association and dissociation phases of all eight injections (using global fit analysis) with the use of Biaevaluation 4.0.1 software. […] The association and dissociation rate constants, kₒₙ (unit M⁻¹s⁻¹) and koff (unit s⁻¹) were determined under a continuous flow rate of 25 μl/min Rate constants were derived by making kinetic binding measurements at ten different antigen concentrations ranging from 10-200 nM. […] Binding is recorded as a function of time and kinetic rate constants are calculated.

[2] = target: T2, human IL-13 wild type (human, UniProt P35225 35-146); assay: competition: human IL-13 to human IL-13Rα2, cell surface-based and ELISA-based RBA
T2 construct: also called h IL-13; hIL-13 wt
T2 sequence (P35225 other isoform, or with tags, fused parts or gaps limits assumed): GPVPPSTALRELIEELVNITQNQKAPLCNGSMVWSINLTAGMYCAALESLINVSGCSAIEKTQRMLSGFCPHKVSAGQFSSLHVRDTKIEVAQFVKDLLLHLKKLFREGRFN

T1 sequence (P35225 35-146 limits assumed, stated change not applied): as the sequence (P35225 other isoform, or with tags, fused parts or gaps limits assumed) above, with R110Q counted along it

B1: 1B6 (antibody, V domains shown)
VH: QVQLKESGPGLVAPSQSLSITCTVSGFSLTGYGVNWVRQPPGKGLEWLGMIWGDERIDYNSALKSRLSITKDNSKSQVFLKMNSLQTDDTGRYFCARDGYFPYAMDYWGQGTSVTVSS
VL: NIVLTQSPASLAVSLGQRATISCRASETVDSYGKSYLHWYQQKPGQPPKLLIYLASNLESGVPARFSGSGSRTDFTLIIDPVEADDAATYYCQQNNEGPRTFGGGTKLEIKR
notes: Murine monoclonal, IgG1κ
kon [1]: 106000 M⁻¹ s⁻¹

B2: 13C5.5 (antibody, human IgG1, V domains shown)
VH: EVTLRESGPGLVKPTQTLTLTCTLYGFSLSTSDMGVDWIRQPPGKGLEWLAHIWWDDVKRYNPALKSRLTISKDTSKNQVVLKLTSVDPVDTATYYCARTVSSGYIYYAMDYWGQGTLVTVSS
VL: DIQMTQSPSSLSASVGDRVTISCRASQDIRNYLNWYQQKPGKAPKLLIFYTSKLHSGVPSRFSGSGSGTDYTLTISSLQPEDIATYYCQQGNTLPLTFGGGTKVEIK
notes: Humanized; also called humanized 13C5
IC50 [2]: 1 to 3 nM
